Publication PMC4331662

Biological target: D. melanogaster cellular repressor of E1A-stimulated genes (dCREG), residues 24-212, produced in E. coli from pFO4/dCREG (D. melanogaster)
Test: SEC; Superdex 75 HR 10/30, 50 mM sodium phosphate buffer pH 7.0, 150 mM NaCl, flow 0.5 ml/min, absorbance at 280 nm

With “D. melanogaster cellular repressor of E1A-stimulated genes (dCREG), residues 24-212, produced in E. coli from pFO4/dCREG (natural protein)” the stoichiometry N was 2.
